Data as given in patent publication US9284543B2, “Neutral active soluble truncated PH20 polypeptides and uses thereof” (Halozyme, Inc., priority 2008, dated 2016).

What was measured:
CHO-S cells = test: Western blot analysis of PH20 expression in media and cells after transient expression; assay type: cell-based, Chinese Hamster; details: media versus cells
How it was run: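 PH20 expression and solubility were judged by anti-PH20 Western blot of non-reduced media and cell fractions, with expression shown by a ~66 kDa band. Samples came from CHO-S cells transiently transfected (GeneJuice) with mutant PH20-HZ24 DNA and cultured 48-72 h. GPI-anchored mutants were cleaved with PI-PLC to release soluble protein.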

[1] = Microtiter hyaluronidase activity assay with biotinylated-hyaluronic acid; assay type: biochemical; details: 72 hour post transfection supernatant

B1: SPAM1-ADVK: C-terminally truncated human PH20, precursor 450 aa (SEQ ID NO:43), mature 415 aa (SEQ ID NO:95) (protein, listed as Homo sapiens)
chain: MGVLKFKHIFFRSFVKSSGVSQIVFTFLLIPCCLTLNFRAPPVIPNVPFLWAWNAPSEFCLGKFDEPLDMSLFSFIGSPRINATGQGVTIFYVDRLGYYPYIDSITGVTVNGGIPQKISLQDHLDKAKKDITFYMPVDNLGMAVIDWEEWRPTWARNWKPKDVYKNRSIELVQQQNVQLSLTEATEKAKQEFEKAGKDFLVETIKLGKLLRPNHLWGYYLFPDCYNHHYKKPGYNGSCFNVEIKRNDDLSWLWNESTALYPSIYLNTQQSPVAATLYVRNRVREAIRVSKIPDAKSPLPVFAYTRIVFTDQVLKFLSQDELVYTFGETVALGASGIVIWGTLSIMRSMKSCLLLDNYMETILNPYIINVTLAAKMCSQVLCQEQGVCIRKNWNSSDYLHLNPDNFAIQLEKGGKFTVRGKPTLEDLEQFSEKFYCSCYSTLSCKEKADVK
modifications: HuPH20 precursor 1-450
CHO-S cells
  Expressed in Media: YES
[1]; Table 6
  pH 5.5 Activity: 0.0405 Units/ml
  pH 7.4 Activity: 0.063 Units/ml

B2: SPAM1-ASPS: C-terminally truncated human PH20, precursor 487 aa (SEQ ID NO:14), mature 452 aa (SEQ ID NO:66) (protein, listed as Homo sapiens)
chain: MGVLKFKHIFFRSFVKSSGVSQIVFTFLLIPCCLTLNFRAPPVIPNVPFLWAWNAPSEFCLGKFDEPLDMSLFSFIGSPRINATGQGVTIFYVDRLGYYPYIDSITGVTVNGGIPQKISLQDHLDKAKKDITFYMPVDNLGMAVIDWEEWRPTWARNWKPKDVYKNRSIELVQQQNVQLSLTEATEKAKQEFEKAGKDFLVETIKLGKLLRPNHLWGYYLFPDCYNHHYKKPGYNGSCFNVEIKRNDDLSWLWNESTALYPSIYLNTQQSPVAATLYVRNRVREAIRVSKIPDAKSPLPVFAYTRIVFTDQVLKFLSQDELVYTFGETVALGASGIVIWGTLSIMRSMKSCLLLDNYMETILNPYIINVTLAAKMCSQVLCQEQGVCIRKNWNSSDYLHLNPDNFAIQLEKGGKFTVRGKPTLEDLEQFSEKFYCSCYSTLSCKEKADVKDTDAVDVCIADGVCIDAFLKPPMETEEPQIFYNASPS
modifications: HuPH20 precursor 1-487
CHO-S cells
  Expressed in Media: YES
[1]; Table 6
  pH 5.5 Activity: 0.9225 Units/ml
  pH 7.4 Activity: 1.017 Units/ml
[1]; Table 6A
  pH 5.5 Activity: 1.580 Units/ml
  pH 7.4 Activity: 1.134 Units/ml

B3: SPAM1-YNAS: C-terminally truncated human PH20, precursor 485 aa (SEQ ID NO:15), mature 450 aa (SEQ ID NO:67) (protein, listed as Homo sapiens)
chain: LNFRAPPVIPNVPFLWAWNAPSEFCLGKFDEPLDMSLFSFIGSPRINATGQGVTIFYVDRLGYYPYIDSITGVTVNGGIPQKISLQDHLDKAKKDITFYMPVDNLGMAVIDWEEWRPTWARNWKPKDVYKNRSIELVQQQNVQLSLTEATEKAKQEFEKAGKDFLVETIKLGKLLRPNHLWGYYLFPDCYNHHYKKPGYNGSCFNVEIKRNDDLSWLWNESTALYPSIYLNTQQSPVAATLYVRNRVREAIRVSKIPDAKSPLPVFAYTRIVFTDQVLKFLSQDELVYTFGETVALGASGIVIWGTLSIMRSMKSCLLLDNYMETILNPYIINVTLAAKMCSQVLCQEQGVCIRKNWNSSDYLHLNPDNFAIQLEKGGKFTVRGKPTLEDLEQFSEKFYCSCYSTLSCKEKADVKDTDAVDVCIADGVCIDAFLKPPMETEEPQIFYNAS
modifications: mature HuPH20 36-485
CHO-S cells
  Expressed in Media: YES
[1]; Table 6
  pH 5.5 Activity: 1.748 Units/ml
  pH 7.4 Activity: 1.8765 Units/ml

B4: SPAM1-FYNA: C-terminally truncated human PH20, precursor 484 aa (SEQ ID NO:16), mature 449 aa (SEQ ID NO:68) (protein, listed as Homo sapiens)
chain 1: MGVLKFKHIFFRSFVKSSGVSQIVFTFLLIPCCLTLNFRAPPVIPNVPFLWAWNAPSEFCLGKFDEPLDMSLFSFIGSPRINATGQGVTIFYVDRLGYYPYIDSITGVTVNGGIPQKISLQDHLDKAKKDITFYMPVDNLGMAVIDWEEWRPTWARNWKPKDVYKNRSIELVQQQNVQLSLTEATEKAKQEFEKAGKDFLVETIKLGKLLRPNHLWGYYLFPDCYNHHYKKPGYNGSCFNVEIKRNDDLSWLWNESTALYPSIYLNTQQSPVAATLYVRNRVREAIRVSKIPDAKSPLPVFAYTRIVFTDQVLKFLSQDELVYTFGETVALGASGIVIWGTLSIMRSMKSCLLLDNYMETILNPYIINVTLAAKMCSQVLCQEQGVCIRKNWNSSDYLHLNPDNFAIQLEKGGKFTVRGKPTLEDLEQFSEKFYCSCYSTLSCKEKADVKDTDAVDVCIADGVCIDAFLKPPMETEEPQIFYNA
chain 2: LNFRAPPVIPNVPFLWAWNAPSEFCLGKFDEPLDMSLFSFIGSPRINATGQGVTIFYVDRLGYYPYIDSITGVTVNGGIPQKISLQDHLDKAKKDITFYMPVDNLGMAVIDWEEWRPTWARNWKPKDVYKNRSIELVQQQNVQLSLTEATEKAKQEFEKAGKDFLVETIKLGKLLRPNHLWGYYLFPDCYNHHYKKPGYNGSCFNVEIKRNDDLSWLWNESTALYPSIYLNTQQSPVAATLYVRNRVREAIRVSKIPDAKSPLPVFAYTRIVFTDQVLKFLSQDELVYTFGETVALGASGIVIWGTLSIMRSMKSCLLLDNYMETILNPYIINVTLAAKMCSQVLCQEQGVCIRKNWNSSDYLHLNPDNFAIQLEKGGKFTVRGKPTLEDLEQFSEKFYCSCYSTLSCKEKADVKDTDAVDVCIADGVCIDAFLKPPMETEEPQIFYNA
modifications: HuPH20 precursor 1-484; Mature HuPH20 36-484
CHO-S cells
  Expressed in Media: YES
[1]; Table 6
  pH 5.5 Activity: 1.262 Units/ml
  pH 7.4 Activity: 1.4985 Units/ml

B5: SPAM1-VKDT: C-terminally truncated human PH20, precursor 452 aa (SEQ ID NO:42), mature 417 aa (SEQ ID NO:94) (protein, listed as Homo sapiens)
chain 1: MGVLKFKHIFFRSFVKSSGVSQIVFTFLLIPCCLTLNFRAPPVIPNVPFLWAWNAPSEFCLGKFDEPLDMSLFSFIGSPRINATGQGVTIFYVDRLGYYPYIDSITGVTVNGGIPQKISLQDHLDKAKKDITFYMPVDNLGMAVIDWEEWRPTWARNWKPKDVYKNRSIELVQQQNVQLSLTEATEKAKQEFEKAGKDFLVETIKLGKLLRPNHLWGYYLFPDCYNHHYKKPGYNGSCFNVEIKRNDDLSWLWNESTALYPSIYLNTQQSPVAATLYVRNRVREAIRVSKIPDAKSPLPVFAYTRIVFTDQVLKFLSQDELVYTFGETVALGASGIVIWGTLSIMRSMKSCLLLDNYMETILNPYIINVTLAAKMCSQVLCQEQGVCIRKNWNSSDYLHLNPDNFAIQLEKGGKFTVRGKPTLEDLEQFSEKFYCSCYSTLSCKEKADVKDT
chain 2: LNFRAPPVIPNVPFLWAWNAPSEFCLGKFDEPLDMSLFSFIGSPRINATGQGVTIFYVDRLGYYPYIDSITGVTVNGGIPQKISLQDHLDKAKKDITFYMPVDNLGMAVIDWEEWRPTWARNWKPKDVYKNRSIELVQQQNVQLSLTEATEKAKQEFEKAGKDFLVETIKLGKLLRPNHLWGYYLFPDCYNHHYKKPGYNGSCFNVEIKRNDDLSWLWNESTALYPSIYLNTQQSPVAATLYVRNRVREAIRVSKIPDAKSPLPVFAYTRIVFTDQVLKFLSQDELVYTFGETVALGASGIVIWGTLSIMRSMKSCLLLDNYMETILNPYIINVTLAAKMCSQVLCQEQGVCIRKNWNSSDYLHLNPDNFAIQLEKGGKFTVRGKPTLEDLEQFSEKFYCSCYSTLSCKEKADVKDT
modifications: HuPH20 precursor 1-452; Mature HuPH20 36-452
CHO-S cells
  Expressed in Media: YES
[1]; Table 6
  pH 5.5 Activity: 0.0225 Units/ml
  pH 7.4 Activity: 0.054 Units/ml

B6: SPAM1-DTDA: C-terminally truncated human PH20, precursor 454 aa (SEQ ID NO:41), mature 419 aa (SEQ ID NO:93) (protein, listed as Homo sapiens)
chain 1: MGVLKFKHIFFRSFVKSSGVSQIVFTFLLIPCCLTLNFRAPPVIPNVPFLWAWNAPSEFCLGKFDEPLDMSLFSFIGSPRINATGQGVTIFYVDRLGYYPYIDSITGVTVNGGIPQKISLQDHLDKAKKDITFYMPVDNLGMAVIDWEEWRPTWARNWKPKDVYKNRSIELVQQQNVQLSLTEATEKAKQEFEKAGKDFLVETIKLGKLLRPNHLWGYYLFPDCYNHHYKKPGYNGSCFNVEIKRNDDLSWLWNESTALYPSIYLNTQQSPVAATLYVRNRVREAIRVSKIPDAKSPLPVFAYTRIVFTDQVLKFLSQDELVYTFGETVALGASGIVIWGTLSIMRSMKSCLLLDNYMETILNPYIINVTLAAKMCSQVLCQEQGVCIRKNWNSSDYLHLNPDNFAIQLEKGGKFTVRGKPTLEDLEQFSEKFYCSCYSTLSCKEKADVKDTDA
chain 2: LNFRAPPVIPNVPFLWAWNAPSEFCLGKFDEPLDMSLFSFIGSPRINATGQGVTIFYVDRLGYYPYIDSITGVTVNGGIPQKISLQDHLDKAKKDITFYMPVDNLGMAVIDWEEWRPTWARNWKPKDVYKNRSIELVQQQNVQLSLTEATEKAKQEFEKAGKDFLVETIKLGKLLRPNHLWGYYLFPDCYNHHYKKPGYNGSCFNVEIKRNDDLSWLWNESTALYPSIYLNTQQSPVAATLYVRNRVREAIRVSKIPDAKSPLPVFAYTRIVFTDQVLKFLSQDELVYTFGETVALGASGIVIWGTLSIMRSMKSCLLLDNYMETILNPYIINVTLAAKMCSQVLCQEQGVCIRKNWNSSDYLHLNPDNFAIQLEKGGKFTVRGKPTLEDLEQFSEKFYCSCYSTLSCKEKADVKDTDA
modifications: HuPH20 precursor 1-454; Mature HuPH20 36-454
CHO-S cells
  Expressed in Media: YES
[1]; Table 6
  pH 5.5 Activity: 0.054 Units/ml
  pH 7.4 Activity: 0 Units/ml
